According to patent US9012407B2, “Therapies which act on neuropeptide S receptors” (The Regents of the University of California, priority 2004, dated 2015):
Values belong to the molecule of their own block, whether it stands above or below them. Where no end group is shown, it is not given here. The star is where a group is joined. 125I = radioactive iodine-125 label on the tyrosine, [125I]*

What was measured:
NPSR WT = target: T1, NPSR WT (Homo sapiens, UniProt Q6W5P4); assay: Intracellular Ca2+ mobilization (FLIPR) in HEK 293 cells stably expressing NPSR WT; format: cell-based; settings: for agonist potency compared to the human peptide: Ca2+ mobilization; for agonist activity, Ca2+ mobilization: individual HEK 293 clone
T1 construct: The primary structure of the wildtype NPSR (NPSR WT) is identical to isoform A of GPRA; expressed in transfected cells
T1 sequence (Q6W5P4 1-371): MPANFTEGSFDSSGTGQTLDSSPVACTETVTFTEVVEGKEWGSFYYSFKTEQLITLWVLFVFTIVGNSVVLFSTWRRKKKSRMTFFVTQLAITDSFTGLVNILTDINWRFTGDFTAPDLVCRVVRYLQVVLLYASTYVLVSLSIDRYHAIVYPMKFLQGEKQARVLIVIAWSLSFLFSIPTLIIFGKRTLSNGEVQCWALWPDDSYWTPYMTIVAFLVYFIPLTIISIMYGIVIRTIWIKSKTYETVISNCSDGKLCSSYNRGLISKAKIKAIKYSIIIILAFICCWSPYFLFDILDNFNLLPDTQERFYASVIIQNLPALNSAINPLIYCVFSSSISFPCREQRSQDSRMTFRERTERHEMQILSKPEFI
Method: (§1) Changes of agonist-induced intracellular Ca^2+ were measured using the FLIPR technology as described before (5, 6). NPS and truncated NPS peptides were a gift from Phoenix Pharmaceuticals (Belmont, Calif.). Dose-response curves were calculated using GraphPad Prism (Graph Pad, San Diego). Mean EC50 values of populations of stable clones expressing either wildtype or mutant NPSR were compared using unpaired t-test and p<0.05 was considered significant.
(§2) Two cells lines expressing similar levels (measured by radioligand binding; see below) of either NPSR WT or NPSR Ile were chosen for detailed analyses of pharmacological parameters. […] In order to investigate whether this tenfold increase in agonist potency at NPSR lie was a general property of the receptor protein we compared a large number of stable clones expressing either NPSR WT or NPSR Ile^107 by establishing dose-response curves for each construct and calculating mean EC50 values for the populations.

human NPSR = target: T2, human NPSR (Homo sapiens, UniProt Q6W5P4); assay: Mobilization of intracellular Ca2+ (FLIPR) in HEK 293T cells stably expressing human NPSR; format: cell-based; settings: for EC50: HEK 293T cells stably expressing human NPSR, read-out: EC50 for mobilization of [Ca2+]i
T2 construct: This receptor protein is identical to the NPSR that we have studied extensively for its pharmacology; expressed in transfected cells
T2 sequence (Q6W5P4 1-371): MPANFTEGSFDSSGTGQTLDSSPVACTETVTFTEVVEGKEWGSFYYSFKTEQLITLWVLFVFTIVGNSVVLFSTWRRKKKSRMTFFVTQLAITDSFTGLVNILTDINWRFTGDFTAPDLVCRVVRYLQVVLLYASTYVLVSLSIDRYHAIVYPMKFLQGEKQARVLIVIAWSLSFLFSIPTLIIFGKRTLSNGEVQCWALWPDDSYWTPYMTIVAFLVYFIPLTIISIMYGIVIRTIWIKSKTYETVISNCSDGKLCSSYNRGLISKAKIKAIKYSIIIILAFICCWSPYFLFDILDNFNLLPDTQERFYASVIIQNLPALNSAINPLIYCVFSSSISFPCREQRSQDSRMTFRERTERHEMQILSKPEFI
Method: Cell lines stably expressing human NPSR in both Chinese hamster ovary (CHO) cells and human embryonic kidney 293 T cells (HEK 293T) were used to define the pharmacological characteristics of NPS. […] HEK 293T cells and CHO dhfr(−) cells were transfected with the human NPSR cDNA cloned into pcDNA 3.1(+) using LipofectAmine. Stable clones were selected with 800 mg/l G418 and tested for mobilization of intracellular Ca^2+ with 100 nM NPS (generous gift of Phoenix Pharmaceuticals, Belmont, Calif.). Changes in intracellular Ca^2+ were measured in a fluorometric imaging plate reader system (FLIPR, Molecular Devices) as described before(Saito et al., 1999). Dose response curves for agonist activation were calculated from peak fluorescence values of triplicate incubations and EC50 values were calculated with Prism software (GraphPad, San Diego, Calif.).

NPSR Ile^107 = target: T3, NPSR Ile^107 (Homo sapiens, UniProt Q6W5P4, N107I); assay: Intracellular Ca2+ mobilization (FLIPR) in HEK 293 cells stably expressing NPSR Ile107; format: cell-based; settings: for agonist potency compared to the human peptide: Ca2+ mobilization; for agonist activity, Ca2+ mobilization: individual HEK 293 clone
T3 construct: The Ile^107 isoform of NPSR was generated by PCR using synthetic oligonucleotides and the Quik Change Site-Directed Mutagenesis kit from Stratagene; expressed in transfected cells
T3 sequence (Q6W5P4 1-371 N107I): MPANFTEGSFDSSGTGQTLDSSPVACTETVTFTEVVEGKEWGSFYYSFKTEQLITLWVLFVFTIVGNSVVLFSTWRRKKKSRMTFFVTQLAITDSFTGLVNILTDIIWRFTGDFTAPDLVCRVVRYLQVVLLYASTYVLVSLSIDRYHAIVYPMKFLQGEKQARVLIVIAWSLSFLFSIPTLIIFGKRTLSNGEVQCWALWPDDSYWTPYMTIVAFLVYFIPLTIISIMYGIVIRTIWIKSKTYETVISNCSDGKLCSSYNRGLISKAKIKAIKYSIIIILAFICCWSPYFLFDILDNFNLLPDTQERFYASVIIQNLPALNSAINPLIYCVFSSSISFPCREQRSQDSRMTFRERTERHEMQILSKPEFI
Method: as §1, §2

[1] = single i.c.v. injection; cited from earlier work
rodents = settings: cited from earlier work
[2] = target: human Neuropeptide S receptor, wildtype (NPSR WT) (human) (UniProt Q6W5P4); assay: cell-based or functional assay
[3] = target: T4, human Neuropeptide S receptor, wildtype (NPSR WT) (human, UniProt Q6W5P4 1-371); assay: saturation radioligand binding to intact CHO cells stably expressing hNPSR
T4 construct: Stably expressed in CHO dhfr(-), HEK 293T or HEK 293 cells; also called hNPSR; human NPSR
T4 sequence: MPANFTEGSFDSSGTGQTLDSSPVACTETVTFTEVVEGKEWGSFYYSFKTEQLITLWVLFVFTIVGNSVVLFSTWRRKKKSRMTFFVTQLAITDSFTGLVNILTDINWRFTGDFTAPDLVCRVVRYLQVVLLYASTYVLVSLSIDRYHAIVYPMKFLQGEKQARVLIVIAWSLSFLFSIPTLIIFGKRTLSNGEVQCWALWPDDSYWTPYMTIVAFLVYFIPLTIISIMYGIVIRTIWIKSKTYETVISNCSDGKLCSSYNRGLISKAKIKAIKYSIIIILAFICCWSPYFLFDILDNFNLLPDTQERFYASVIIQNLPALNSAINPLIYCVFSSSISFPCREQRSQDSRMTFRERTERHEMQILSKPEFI
Method: (§3) The monoiodinated form of Y^10-NPS was used as a radioligand in receptor binding experiments. […] No specific binding was detected in mock-transfected CHO cells.
(§4) CHO cells stably expressing human NPSR were seeded into 24-well plates and cultured for 48 hours. […] Nonspecific binding was determined in the presence of 1 µM unlabeled human NPS. The binding assay was carried out as described (Sakurai et al., 1998). In brief, cells were washed with PBS first and then incubated with radioligand with or without unlabeled NPS peptide in DMEM medium containing 0.1% bovine serum albumin at 20° C. for 1.5 h. Cells were washed 5 times with cold PBS and lysed with 1 N NaOH. Bound radioactivity was counted in a MicroBeta liquid scintillation counter (EG&G Wallac, Gaithersburg, Md.) and corrected for counting efficiency. Data from triplicate incubations were analyzed using PRISM.

[4] = target: T4, human Neuropeptide S receptor, wildtype …; assay: saturation binding of [125I] Y10-NPS to stable clones, intact cells
[5] = target: T5, human Neuropeptide S receptor Ile107 isoform (NPSR Ile107) (human, UniProt Q6W5P4 1-371); assay: as above
T5 construct: also called NPSR lie; Asn107Ile variant
T5 sequence: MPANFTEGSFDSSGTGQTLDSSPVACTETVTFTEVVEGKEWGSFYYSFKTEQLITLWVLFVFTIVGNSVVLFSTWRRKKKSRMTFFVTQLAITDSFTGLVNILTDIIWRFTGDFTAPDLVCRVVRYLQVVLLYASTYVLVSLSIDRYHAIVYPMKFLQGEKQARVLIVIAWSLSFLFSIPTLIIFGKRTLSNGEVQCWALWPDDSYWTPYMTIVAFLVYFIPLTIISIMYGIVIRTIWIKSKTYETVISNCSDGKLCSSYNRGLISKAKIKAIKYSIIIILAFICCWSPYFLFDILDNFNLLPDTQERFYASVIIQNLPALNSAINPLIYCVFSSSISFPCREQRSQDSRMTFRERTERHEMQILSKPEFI

[6] = target: T4, human Neuropeptide S receptor, wildtype …; assay: saturation binding of [125I] Y10-NPS to stable clones, intact cells, average of n=4 clones
[7] = target: T5, human Neuropeptide S receptor Ile107 …; assay: as above
[8] = target: T4, human Neuropeptide S receptor, wildtype …; assay: displacement of 0.15 nM [125I] Y10-NPS from CHO cells stably expressing hNPSR by unlabeled human NPS
Method: as §3, §4

[9] = target: human Neuropeptide S receptor C-terminal splice variant (NPSR C-alt) (human), Q6W5P4; assay: cell-based or functional assay
[10] = target: T4, human Neuropeptide S receptor, wildtype …; assay: cell-based or functional assay
[11] = target: T5, human Neuropeptide S receptor Ile107 …; assay: cell-based or functional assay

agonist potency compared to the human peptide (NPSR WT): slightly more potent
EC50 (human NPSR): 3 ± 1.3 nM
agonist potency compared to the human peptide (NPSR Ile^107): slightly more potent
Molecule: SFRNGVGSGAKKTSFRRAKQ [mouse NPS]

agonist activity, Ca2+ mobilization (NPSR WT): full agonist activity
agonist activity, Ca2+ mobilization (NPSR Ile^107): full agonist activity
Molecule: NPS 1-10: human NPS fragment, residues 1-10, after deletion of the two lysines at positions 11 and 12 (SFRNGVGTGM)

EC50 for mobilization of [Ca2+]i, HEK 293T cells stably expressing human NPSR [2]: 3.2 nM
Molecule: rat Neuropeptide S (from UniProt P0C0P7 70-89)

antagonist activity against activation by NPS 1-20 (NPSR WT): failed to block activation
agonist activity, Ca2+ mobilization (NPSR WT): almost completely lost agonist activity
antagonist activity against activation by NPS 1-20 (NPSR Ile^107): failed to block activation
agonist activity, Ca2+ mobilization (NPSR Ile^107): full, but weakly potent, agonist
Molecule: NPS 1-12: carboxy-terminally truncated fragment of human NPS, residues 1-12 (SFRNGVGTGMKK)

agonist activity, Ca2+ mobilization (NPSR WT): completely abolished agonist activity
agonist activity, Ca2+ mobilization (NPSR Ile^107): completely abolished agonist activity
Molecule: NPS 4-20: human NPS fragment with the three amino-terminal amino acids deleted (NGVGTGMKKTSFQRAKS)

EC50, agonist activity (Ca2+ mobilization, data not shown) [10]: 6.7 nM
Molecule: SFRNGVGTGYKKTSFQRAKS [Human Y10-NPS (unlabeled)]

More lines, now with the values behind:

Molecule: Hcrt/Ox: neuropeptide hypocretin 1/orexin A, literature comparison (QPLPDCCRQKTCSCRLYELLHGAGNHAAGILTL; ends and bridges not checked; cysteine pairing not given here; UniProt O43612 34-66, looked up)
duration of arousal [1]: 2 to 3 h
effect on anxiety-like behavior (rodents): no effect

Molecule: mouse Neuropeptide S (from UniProt P0C0P8 70-89)
EC50 for mobilization of [Ca2+]i, HEK 293T cells stably expressing human NPSR [2]: 3 nM

Molecule: H-SFRNGVGTGYKKTSFQRAKS-OH [Human Y^10-NPS]
agonist activity (human NPSR; human NPSR, Ca2+ mobilization): full agonist activity

Molecule: SFRNGVGSGVKKTSFRRAKQ [rat NPS]
agonist potency compared to the human peptide (NPSR WT): slightly more potent
EC50 (human NPSR): 3.2 ± 1.1 nM
agonist potency compared to the human peptide (NPSR Ile^107): slightly more potent

B1: [125I] Y10-hNPS (monoiodinated human Y10-NPS radioligand) (peptide)
peptide: SFRNGVGTGY(125I)KKTSFQRAKS
modifications: also: monoiodinated with 125I (chloramine T)
notes: Human NPS in which the residue at position 10 is replaced by tyrosine, then radioiodinated; also called Y10-NPS; the radioligand
Kd [3]: 0.33 nM
Kd [4]: 0.2 to 0.45 nM
Kd [5]: 0.17 to 0.4 nM
Kd [6]: 0.347 nM
Kd [7]: 0.403 nM

B2: human Neuropeptide S (hNPS) (peptide)
peptide: SFRNGVGTGMKKTSFQRAKS-OH
notes: 20-residue mature peptide with free C-terminus (-OH); also called human NPS; NPS 1-20
IC50 [8]: 0.42 nM
EC50, CRE-luciferase reporter, transiently transfected HEK 293 cells [9]: 146 nM
EC50, CRE-luciferase reporter, transiently transfected HEK 293 cells [10]: 76.6 nM
EC50, MAPK phosphorylation, stable HEK cells [10]: 1.23 nM
EC50, cAMP accumulation, stable HEK clone [10]: 31.9 nM
EC50, increase in intracellular Ca2+ in cells stably expressing NPSR WT [10]: 5 to 10 nM
EC50, intracellular free Ca2+, single stable HEK 293 clone [10]: 12.4 nM
EC50 for mobilization of [Ca2+]i, HEK 293T cells stably expressing human NPSR [10]: 9.4 nM
mean EC50, NPS-induced CRE-luciferase reporter gene expression, n=7 stable HEK clones [10]: 45.1 nM
mean EC50, NPS-induced mobilization of intracellular Ca2+, n=16 stable clones [10]: 13 nM
EC50, CRE-luciferase reporter, transiently transfected HEK 293 cells [11]: 17.3 nM
EC50, MAPK phosphorylation, stable HEK cells [11]: 0.32 nM
EC50, cAMP formation, stable HEK clone [11]: 3.45 nM
EC50, intracellular free Ca2+, single stable HEK 293 clone [11]: 1.4 nM
mean EC50, NPS-induced CRE-luciferase reporter gene expression, n=21 stable HEK clones [11]: 0.63 nM
mean EC50, NPS-induced mobilization of intracellular Ca2+, n=21 stable clones [11]: 1.01 nM
